OD data for nine molecules are collected here from patent publication US6703362 (CYTOGEN, dated 2004).

T1: hPEPT1 receptor domain (human PEPT1, amino acid residues 391-571), His-tag fusion protein (human, UniProt P46059 391-571)
T1 construct: purified under denaturing conditions; also called recombinant hPEPT1; not shown: poly-histidine tag (pET vector) at the NH2-terminal end
T1 sequence: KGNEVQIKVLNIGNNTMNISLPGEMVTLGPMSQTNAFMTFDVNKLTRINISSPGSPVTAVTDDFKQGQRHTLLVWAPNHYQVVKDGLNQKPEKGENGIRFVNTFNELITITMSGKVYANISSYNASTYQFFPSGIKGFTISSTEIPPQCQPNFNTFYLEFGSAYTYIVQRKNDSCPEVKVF

B1: S21 (peptide)
peptide: SPRSFWPVVSRHESFGISNYLGCGYRTCISGTMTKSSPIYPRHSAETVESCLAKPHTENSFTNVWKDDKTLDRYANYEGCLWNATGVVVCTGDETQCYGTWVPIGLAIPENEGGGSEGGGSEGGGSEGGGTKPPEYGDTPIPGYTYINPLDGTYPPGTEQNPANPNPSLEESQPLNTFMFQNNRFRNRQGALTVYTGTVTQGTDPVKTYYQYTPVSSKAMYDAYWNGKFRDCAFHSGFNEDPFVCEYQGQSSDLPQPPVNAGGGSGGGSGGGSEGGGSEGGGSEGGGSEGGGSGGGSGSGDFDYEKMANANKGAMTENADENALQSDAKGKLDSVATDYGAAIDGFIGDVSGLANGNGATGDFAGSNSQMAQVGDGDNSPLMNNFRQYLPSLPQSVECRPFVFSAGKPYEFSIDCDKINLFRGVFAFLLYVATFMYVFSTFANILRNKES
notes: Assayed as M13 phage clone displaying the insert
B2: S15 (peptide)
peptide: RSGAYESPDGRGGRSYVGGGGGCGNIGRKHNLWGLRTASPACWDAETVESCLAKPHTENSFTNVWKDDKTLDRYANYEGCLWNATGVVVCTGDETQCYGTWVPIGLAIPENEGGGSEGGGSEGGGSEGGGTKPPEYGDTPIPGYTYINPLDGTYPPGTEQNPANPNPSLEESQPLNTFMFQNNRFRNRQGALTVYTGTVTQGTDPVKTYYQYTPVSSKAMYDAYWNGKFRDCAFHSGFNEDPFVCEYQGQSSDLPQPPVNAGGGSGGGSGGGSEGGGSEGGGSEGGGSEGGGSGGGSGSGDFDYEKMANANKGAMTENADENALQSDAKGKLDSVATDYGAAIDGFIGDVSGLANGNGATGDFAGSNSQMAQVGDGDNSPLMNNFRQYLPSLPQSVECRPFVFSAGKPYEFSIDCDKINLFRGVFAFLLYVATFMYVFSTFANILRNKES
notes: as for B1
B3: S22 (peptide)
peptide: SSSSDWGGVPGKVVRERFKGRGCGISITSVLTGKPNPCPEPKAAAETVESCLAKPHTENSFTNVWKDDKTLDRYANYEGCLWNATGVVVCTGDETQCYGTWVPIGLAIPENEGGGSEGGGSEGGGSEGGGTKPPEYGDTPIPGYTYINPLDGTYPPGTEQNPANPNPSLEESQPLNTFMFQNNRFRNRQGALTVYTGTVTQGTDPVKTYYQYTPVSSKAMYDAYWNGKFRDCAFHSGFNEDPFVCEYQGQSSDLPQPPVNAGGGSGGGSGGGSEGGGSEGGGSEGGGSEGGGSGGGSGSGDFDYEKMANANKGAMTENADENALQSDAKGKLDSVATDYGAAIDGFIGDVSGLANGNGATGDFAGSNSQMAQVGDGDNSPLMNNFRQYLPSLPQSVECRPFVFSAGKPYEFSIDCDKINLFRGVFAFLLYVATFMYVFSTFANILRNKES
notes: as for B1
B4: PAX16 (peptide)
peptide: SWTRWGKHTHGGFVNKSPPGKNATSPYTDAQLPSDQGPPAETVESCLAKPHTENSFTNVWKDDKTLDRYANYEGCLWNATGVVVCTGDETQCYGTWVPIGLAIPENEGGGSEGGGSEGGGSEGGGTKPPEYGDTPIPGYTYINPLDGTYPPGTEQNPANPNPSLEESQPLNTFMFQNNRFRNRQGALTVYTGTVTQGTDPVKTYYQYTPVSSKAMYDAYWNGKFRDCAFHSGFNEDPFVCEYQGQSSDLPQPPVNAGGGSGGGSGGGSEGGGSEGGGSEGGGSEGGGSGGGSGSGDFDYEKMANANKGAMTENADENALQSDAKGKLDSVATDYGAAIDGFIGDVSGLANGNGATGDFAGSNSQMAQVGDGDNSPLMNNFRQYLPSLPQSVECRPFVFSAGKPYEFSIDCDKINLFRGVFAFLLYVATFMYVFSTFANILRNKES
notes: as for B1
B5: 5PAX12 (peptide)
peptide: RGWKCEGSQAAYGDKDIGRSRGCGSITKNNTNHAHPSHGAVAKIAETVESCLAKPHTENSFTNVWKDDKTLDRYANYEGCLWNATGVVVCTGDETQCYGTWVPIGLAIPENEGGGSEGGGSEGGGSEGGGTKPPEYGDTPIPGYTYINPLDGTYPPGTEQNPANPNPSLEESQPLNTFMFQNNRFRNRQGALTVYTGTVTQGTDPVKTYYQYTPVSSKAMYDAYWNGKFRDCAFHSGFNEDPFVCEYQGQSSDLPQPPVNAGGGSGGGSGGGSEGGGSEGGGSEGGGSEGGGSGGGSGSGDFDYEKMANANKGAMTENADENALQSDAKGKLDSVATDYGAAIDGFIGDVSGLANGNGATGDFAGSNSQMAQVGDGDNSPLMNNFRQYLPSLPQSVECRPFVFSAGKPYEFSIDCDKINLFRGVFAFLLYVATFMYVFSTFANILRNKES
notes: as for B1
B6: PAX14 (peptide)
peptide: RTFENDGLGVGRSIQKKSDRWYASHNIRSHFASMSPAGKAETVESCLAKPHTENSFTNVWKDDKTLDRYANYEGCLWNATGVVVCTGDETQCYGTWVPIGLAIPENEGGGSEGGGSEGGGSEGGGTKPPEYGDTPIPGYTYINPLDGTYPPGTEQNPANPNPSLEESQPLNTFMFQNNRFRNRQGALTVYTGTVTQGTDPVKTYYQYTPVSSKAMYDAYWNGKFRDCAFHSGFNEDPFVCEYQGQSSDLPQPPVNAGGGSGGGSGGGSEGGGSEGGGSEGGGSEGGGSGGGSGSGDFDYEKMANANKGAMTENADENALQSDAKGKLDSVATDYGAAIDGFIGDVSGLANGNGATGDFAGSNSQMAQVGDGDNSPLMNNFRQYLPSLPQSVECRPFVFSAGKPYEFSIDCDKINLFRGVFAFLLYVATFMYVFSTFANILRNKES
notes: as for B1
B7: PAX15 (peptide)
peptide: SYCRVKGGGEGGHTDSNLARSGCGKVARTSRLQHINPRATPPSRAETVESCLAKPHTENSFTNVWKDDKTLDRYANYEGCLWNATGVVVCTGDETQCYGTWVPIGLAIPENEGGGSEGGGSEGGGSEGGGTKPPEYGDTPIPGYTYINPLDGTYPPGTEQNPANPNPSLEESQPLNTFMFQNNRFRNRQGALTVYTGTVTQGTDPVKTYYQYTPVSSKAMYDAYWNGKFRDCAFHSGFNEDPFVCEYQGQSSDLPQPPVNAGGGSGGGSGGGSEGGGSEGGGSEGGGSEGGGSGGGSGSGDFDYEKMANANKGAMTENADENALQSDAKGKLDSVATDYGAAIDGFIGDVSGLANGNGATGDFAGSNSQMAQVGDGDNSPLMNNFRQYLPSLPQSVECRPFVFSAGKPYEFSIDCDKINLFRGVFAFLLYVATFMYVFSTFANILRNKES
notes: as for B1
B8: PAX9 (peptide)
peptide: RWPSVGYKGNGSDTIDVHSNDASTKRSLIYNHRRPLFPAETVESCLAKPHTENSFTNVWKDDKTLDRYANYEGCLWNATGVVVCTGDETQCYGTWVPIGLAIPENEGGGSEGGGSEGGGSEGGGTKPPEYGDTPIPGYTYINPLDGTYPPGTEQNPANPNPSLEESQPLNTFMFQNNRFRNRQGALTVYTGTVTQGTDPVKTYYQYTPVSSKAMYDAYWNGKFRDCAFHSGFNEDPFVCEYQGQSSDLPQPPVNAGGGSGGGSGGGSEGGGSEGGGSEGGGSEGGGSGGGSGSGDFDYEKMANANKGAMTENADENALQSDAKGKLDSVATDYGAAIDGFIGDVSGLANGNGATGDFAGSNSQMAQVGDGDNSPLMNNFRQYLPSLPQSVECRPFVFSAGKPYEFSIDCDKINLFRGVFAFLLYVATFMYVFSTFANILRNKES
notes: as for B1
B9: 5PAX7 (peptide)
peptide: RWGWERSPSDYDSDMDLGARRYATRTHRAPPRVLKAPLPAETVESCLAKPHTENSFTNVWKDDKTLDRYANYEGCLWNATGVVVCTGDETQCYGTWVPIGLAIPENEGGGSEGGGSEGGGSEGGGTKPPEYGDTPIPGYTYINPLDGTYPPGTEQNPANPNPSLEESQPLNTFMFQNNRFRNRQGALTVYTGTVTQGTDPVKTYYQYTPVSSKAMYDAYWNGKFRDCAFHSGFNEDPFVCEYQGQSSDLPQPPVNAGGGSGGGSGGGSEGGGSEGGGSEGGGSEGGGSGGGSGSGDFDYEKMANANKGAMTENADENALQSDAKGKLDSVATDYGAAIDGFIGDVSGLANGNGATGDFAGSNSQMAQVGDGDNSPLMNNFRQYLPSLPQSVECRPFVFSAGKPYEFSIDCDKINLFRGVFAFLLYVATFMYVFSTFANILRNKES
notes: as for B1

One experiment deals with T2, hSI receptor domain (human sucrase-isomaltase complex, amino acid residues 272-667), His-tag fusion protein (human, UniProt P14410 272-667).
T2 construct: also called hS1; recombinant hSI; not shown: poly-histidine tag (pET vector) at the NH2-terminal end
T2 sequence (P14410 272-667, one chain of several): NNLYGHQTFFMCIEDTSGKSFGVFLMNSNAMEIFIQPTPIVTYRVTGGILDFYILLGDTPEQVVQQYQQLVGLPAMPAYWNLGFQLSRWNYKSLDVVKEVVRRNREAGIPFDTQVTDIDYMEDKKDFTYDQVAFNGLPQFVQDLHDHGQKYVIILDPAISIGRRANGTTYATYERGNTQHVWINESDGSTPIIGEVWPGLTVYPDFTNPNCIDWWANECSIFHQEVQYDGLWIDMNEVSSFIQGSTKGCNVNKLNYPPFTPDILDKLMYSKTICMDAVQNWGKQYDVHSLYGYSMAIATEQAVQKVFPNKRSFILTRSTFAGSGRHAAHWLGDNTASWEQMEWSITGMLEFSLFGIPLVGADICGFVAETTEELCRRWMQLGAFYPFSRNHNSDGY
Briefly: phage ELISA, plate coated with hSI domain. How it is done: (§1) 6.6. Receptor ELISA Procedure 96 well plates were coated overnight with GIT receptor, BSA and, optionally, IDE (insulin degrading enzyme, an irrelevant His-fusion protein)or hTF. The plates were blocked for one hour with 0.5% BSA-PBS. After clarification, the amplified phage were diluted 1:100 in […] plus 0.05% Tween 20 in PBS and added to the plates. Following incubation of the plates on a rotator for 1 to 2 hours, the plates were washed 5 times with 1% BSA plus 0.05% Tween 20 in PBS. […] After the plates were washed 5 times, as described above, TMB substrate was added to the wells. The plates were read at 650 nm absorbance.
On the technique in general: ELISA stands for enzyme-linked immunosorbent assay.
B1 displayed an OD of 0.845 OD. Same read-out and setting: next, B2: 0.478 OD; B3: 0.399 OD.

The target in a further experiment is T1, hPEPT1 receptor domain (human PEPT1, …). Briefly: phage ELISA, plate coated with hPEPT1 domain. How it is done:
as §1
With B4, the OD was 0.648 OD. Same read-out and setting: next, B5: 0.227 OD; B6: 1.1 OD; B7: 0.301 OD. The same measure, in the same setting: next, B8: 0.312 OD; B9: 0.171 OD.
